{
  "source": "paper doi:10.1101/2020.06.17.153486",
  "about": "(bioRxiv, 2020)",
  "binders": {"B1": {"name": "2-4 Fab (Fab, V domains shown)", "VH": "QVQLVQSGAEVKKPGASVKVSCKASGYTFTGYYMHWVRQAPGQGLEWMGWINPNSGGTNYTQMFQGRVTMTRDTSISTAYMEVSRLRSDDTAVYYCARDRSWAVVYYYMDVWGKGTTVTVSS", "VL": "QSALTQPPSASGSPGQSVTISCTGTSSDVGGYNYVSWYQQHPGKAPKLMIYEVSKRPSGVPDRFSGSKSGNTASLTVSGLQAEDEADYYCSSYAGSNNLVFGGGTKLTVL"}},
  "biological_target": "SARS-CoV-2 spike trimer (S trimer), soluble ectodomain (SARS-CoV-2, Wuhan-Hu-1 type, stabilised)",
  "assay": "cryo-EM structure",
  "data": [
    {"binder": "B1", "values": [
      {"measurement": "stoichiometry N", "value": 3, "unit": "Fab per trimer"}
    ]}
  ]
}
